# Source: US20200223906A1 (Adimab, published 2020)
# Where a chain is given by its changes, count along the chain named.
# B1: ADI-18974 (antibody, V domains shown)
# VH: QVQLVQSGPEVKKPGASVRVSCEASGYPFSNYGITWVRQAPGQGLEWMGWISAYNGNRDYLQKFQGRLTMTIDTSTRTAHMELRRLTSDDTAVYWCARDTPATAAPLLDYWGQGTLVTVSS
# VL: DIVMTQSPLSLAVTLGQPASISCRSSQSLEFTDGNTYLNWFQQRPGQSPRRLIYKVSNRDSGVPDRFSGSGSGTGFTLKISRVEAEDVGVYYCMQGIFRPGTFGQGTKVEIK
# notes: full-length IgG from yeast
# B2: ADI-18958 (antibody, V domains shown)
# VH: QVQLQESGAEVKMRGASVKVSCKASGYTFSHYGISWVRQAPGQGLEWMGFISAYNHNTKYAQTVQGRVTLSTDTSTSTAYMELRSLRPDDTAMYYCAREPPSDDAARLFDYWGQGTLVTVSS
# VL: ETTLTQSPRSLPVTLGQPASISCRSSQSLVYSEGNTYLSWFQQRPGQSPRRLIYKVSNRDSGVPDRFSGSGSGTDFTLKISRVEAEDVGVYYCMQGTQWPVTFGQGTKVEIK
# notes: full-length IgG from yeast
# B3: ADI-18969 (antibody, V domains shown)
# VH: QVQLVQSGPEVKKPGASVTVSCKASGYTFSHYGISWVRQAPGQGLEWMGWISAYHGQTNYAQNFQGRVTMTTDTSSNTAYMEVRSLRSDDTAVYFCARDVFSKTAARIFDYWGQGTLVTVSS
# VL: B2 VL with T2I, T3V, R9L, V30E, E33D, G71Q, G96A, Q98D, V109L
# notes: full-length IgG from yeast; also called Antibody Number 317; Ab # 317
# B4: ADI-18953 (antibody, V domains shown)
# VH: QVQLVQSGAEVKKPGSSVKVSCKASGGTFSGYAINWVRQAPGQGLEWMGGIIHIFGTVNYAPKFQGRLTITADASTGTAYMELSSLMSEDTALYYCARDAYEVWTGSYLPPFDYWGQGTLVTVSS
# VL: ETTLTQSPGTLSLSPGERVTLSCRASQTVTSNYLAWYQQKPGQAPRLLIYDAFTRATGVPARFSGSGSGTDFTLTISRLEPEDFAVYYCQQYGSSFLTFGGGTKVEIK
# notes: full-length IgG from yeast
# B5: ADI-18975 (antibody, V domains shown)
# VH: QVQLVQSGAEVKKPGASVKVSCKASGYTFVHYGISWVRQAPGQGLEWMGWISAYNGNTNSALKFQDRVTMTTDPSTSTAYMELRSLRSDDTAIYYCARDSGCCSGSTSDVWGKGTTVTVSS
# VL: DIVMTQSPLSSPVTLGQPASISCRSSQSLVHSDGNTYLSWLHQRPGQPPRLLIYKISHRFSGVPDRFTGSGAGTDFTLKISRVEAEDVGVYYCMQATEFPPMYTFGQGTKVEIK
# notes: full-length IgG from yeast; also called Antibody Number 323; Ab # 323
# B6: ADI-18936 (antibody, V domains shown)
# VH: EVQLLESGAEVKKPGASVRVSCKASGYTFTDYFMNWVRQAPGGGLEWMGWVNPLSGATKYAQKFQGRVTMTTDTSITTGYLDLRSLRVDDTAIYFCASQSSPYTPGAMGVWGQGTTVTVSS
# VL: DIQVTQSPSSLSASVGDRVTITCRASQSISGYLSWYQQKPGKAPNLLIYATSNLYSGVPSRFSGRDSGTDFTLTITSLQPEDFATYFCQLNSGALFTFGPGTKVEIK
# notes: full-length IgG from yeast
# B7: ADI-18882 (antibody, V domains shown)
# VH: QVQLVQSGAEVKKPGSSVRVSCKASGGTFRGYGLSWVRQAPGQGLEWMGGITHLFGTVSYAPKFQGRLTITADASTGTAYMELSSLISEDTAVYFCARDAYEVWTGSYLPPFDYWGQGTMVTVSS
# VL: DIVMTQSPGTLSLSPGERVTLSCRASQIIPSSYLAWYQQKPGQAPRLLIYGAFTRATDIPDRFSGSGSGTDFTLTISRLEPEDFAVYYCQQYGSSFLTFGGGTKVEIK
# notes: full-length IgG from yeast
# B8: ADI-18939 (antibody, V domains shown)
# VH: QVQLQQWGAGLLKPSETLSLTCAVYGGSFSGYSWSWIRQSPGKGLEWIGEINHRGSTNYNPSLKSRVTISVDTSKNQFSLKLSSVTAADTAVYYCAGTNYGEVNTSNQYFFGMDVWGQGTTVTVSS
# VL: DIRLTQSPSSLSASVGDRVTITCRASQSITTYLNWYQQKPGKAPKLLIYAASNLESGVPSSFSGSGFGTDFTLTISSLQPDDFATYYCQQSYSAPLTFGGGTKVDIK
# notes: full-length IgG from yeast; also called Antibody Number 292; Ab # 292
# B9: ADI-18960 (antibody, V domains shown)
# VH: QVQLQESGPGLVKPSETLSLTCSVSGGSITNVNYYWGWIRQPPGKGLEWIGSIYYNGNTYYNPSLQSRVTMSVDTSKNHFSLRLTSVTAADTAVYFCAREGPNWELLNAFDIWGQGTTVTVSS
# VL: DIQVTQPPSVSVAPGQTARITCGGNNIGSKNVHWYQQKPGRAPVLVVYEDTHRPSGIPERFSGSNSGNTATLTISRVEAGDEADYYCQVWDTSSDHVVFGGGTKLTVL
# notes: full-length IgG from yeast; also called Antibody Number 311; Ab # 311
# B10: ADI-18937 (antibody, V domains shown)
# VH: QVQLQESGPGLVKPSQTLSLTCTVSGPSISAGDYNWNWIRQAPGKGLEWVGYIDYRGLTHYNPSLKGRLSILMDRSANQFSLELNSVTAADTAVYYCARDVGVYSGYDVFHYYGMDVWGQGTTVTVSS
# VL: ETTLTQSPVTLSLSPGERATLSCRASQYVRNNYLAWYQHKPGQAPRLLIYSASSRVTGTPDRFSGSGSGTDFTLTISRLEPEDFAVYYCQQYGGSPPVTFGPGTKVDIK
# notes: full-length IgG from yeast; also called Antibody Number 290; Ab # 290
# B11: ADI-18971 (antibody, V domains shown)
# VH: EVQLVESGGGLVQRGGSLRLSCAASGFTFSGNAMSWVRQAPGKGLEWVASIGESATSAYYADSVKGRFTISRDDSKNTLYLQMNSLRPEDTAVYFCAKDRVGWFGEFDAFDFWGQGTMVTVSS
# VL: SYELTQPPSVSVAPGKTATISCGGNNIGGHKVHWYQQRPGQAPVLVIYYDNVRPSGIPERFSGSNSGNTATLTISRVEAGDEADFYCQVWDSRSEHVIFGGGTKVTVL
# notes: full-length IgG from yeast; also called Antibody Number 319; Ab # 319
# B12: ADI-18880 (antibody, V domains shown)
# VH: QVQLVQSGSEVKKPGAAVKVSCKASGYIFANFGVSWVRQAPGQGLEWMGWISAYNGNTNYAQKFQGRVIMTTDTSTSTAYMELRSLRSDDTAVYYCARDPPAYAATLMDVWGKGTTVTVSS
# VL: EIVLTQSPLSLPVTLGQSASISCRSSQSLEHSDTNTYLTWYQQRPGQSPRRLLYKVSNRDSGVPDRFSGSGSGTDFTLKISRVEAEDVGVYYCMQGTHWPPTFGQGTKVDIK
# notes: full-length IgG from yeast
# B13: ADI-18904 (antibody, V domains shown)
# VH: B12 VH with Q1E, Q6E
# VL: B12 VL with E1D, L4M, V109L, D110E
# notes: full-length IgG from yeast; also called Antibody Number 259; Ab # 259
# B14: ADI-18935 (antibody, V domains shown)
# VH: QVQLQESGPGLVKPSQTLSLTCTVSGRLLSSGDYYWSWIRQSPGRGLEWIGYVYHSGTTSYNPSLKSRITMTVDTSKNQFNLRLTSVTAADTAVYYCARDLGYSSSSPAFYYGIDFWGPGTMVTVSS
# VL: EIVLTQSPATLSLSPGQRATLSCRASQSVGNYLAWYQQKPGQAPRLLIYDASNRVTGIPARFSGSGSGTDFTLTISRLESEDFAVYYCQQRSNGVLTFGGGTKVDIK
# notes: full-length IgG from yeast
# B15: ADI-18932 (antibody, V domains shown)
# VH: QVQLQESGPGLVRPSQTLSLTCSASGAAINSGDYYWSWIRQAPGRGLEWIGSISNRGVTDYNPSLKSRVIISADTSKNQFSLRLTSVTATDTAVYYCARDLGTLAFDPYYYYGIDVWGQGTTVTVSS
# VL: DIRMTQSPATLSLSPGERATLSCRASQSVSRHLAWYQQKPGQAPRLLIYDASYRVTGVPDRFSGSGSGTDFTLTISSLESEDFAIYFCQQRSTWPTFGQGTKVEIK
# notes: full-length IgG from yeast
# B16: ADI-18883 (antibody, V domains shown)
# VH: QVQLVQSGPEVKKPGSSVTVSCKASGGTFSNYGIAWVRQAPGQGLEWMGSTIPILGTASYRQSLKDRVTITADASTTTVYMEMTRLRTEDTAVYFCARVPESLVASNAYAVWGQGTVVTVSS
# VL: DIQMTQSPSSVSASVGDRVTITCRASQDISTWLAWYQQRPGKAPKLLIYTASSLQSGVPSRFSGSGSGTEFTLTISSLQPEDFATYYCQQGTSFPFTFGPGTKLEIK
# notes: full-length IgG from yeast
# B17: ADI-18966 (antibody, V domains shown)
# VH: QVQLVQSGGGVVQPGRSLRLSCAASGFTFRNYGMHWVRQAPGKGLEWVAAASYDGSSKYFADAVKGRFSISRDNTKNTLSLQMTSLRAEDTAVYYCARDPGVGSYYNVVGMDVWGQGTTVTVSS
# VL: DIRLTQSPLSLPVTLGQPASISCRSSQSLVYSDGNTYLNWFQQRPGQSPRRLIYRVSHRDSGVPDRFSGSESGTDFTLKISRVEAEDVGVYYCMQGTHWPPTFGQGTKVEIK
# notes: full-length IgG from yeast
# Target: T1, RSV F subtype B, furin-cleaved ectodomain stabilized in the prefusion conformation (DS-Cav1) (Respiratory syncytial virus subtype B)
# T1 construct: extracellular domain; Trimeric soluble antigen; also called Prefusion subtype B
# Assay: BLI, IgG on AHQ sensor, 100 nM antigen
row,Binder,Kd [nM]
1,B1,0.29
2,B2,0.302
3,B3,0.297
4,B4,0.421
5,B5,0.298
6,B6,0.298
7,B7,0.476
8,B8,0.56
9,B9,0.183
10,B10,0.273
11,B11,0.168
12,B12,0.304
13,B13,0.237
14,B14,0.582
15,B15,1.39
16,B16,0.566
17,B17,0.562

# Target: T2, RSV F subtype A, furin-cleaved ectodomain stabilized in the prefusion conformation (DS-Cav1) (Respiratory syncytial virus subtype A, UniProt P03420 26-524)
# T2 construct: extracellular domain; Trimeric soluble antigen; also called Prefusion subtype A
# Assay: BLI, IgG on AHQ sensor, 100 nM antigen
row,Binder,Kd [nM]
1,B1,0.253
2,B2,0.286
3,B3,0.303
4,B4,0.513
5,B5,0.267
6,B6,0.303
7,B7,0.427
8,B8,0.574
9,B9,0.178
10,B10,0.289
11,B11,0.157
12,B12,0.255
13,B13,0.251
14,B14,0.66
15,B15,0.917
16,B16,0.431
17,B17,0.578

# Target: RSV F protein of subtype A (strain A2) on recombinant mKate-RSV virus (Respiratory syncytial virus subtype A …, UniProt P03420 26-574)
# Assay: cell-based or functional assay
row,Binder,Neut IC50 (µg/ml) subtype A [µg/mL]
1,B1,0.03
2,B2,0.587
3,B3,0.035
4,B4,0.034
5,B5,0.037
6,B6,0.032
7,B7,0.041
8,B8,0.018
9,B9,0.034
10,B10,0.084
11,B11,0.039
12,B12,0.041
13,B13,0.018
14,B14,0.779
15,B15,0.184
16,B16,0.041
17,B17,0.044

# Target: RSV F protein of subtype B (18537) on recombinant mKate-RSV virus (Respiratory syncytial virus subtype B …, UniProt P13843 26-574)
# Assay: cell-based or functional assay
row,Binder,Neut IC50 (µg/ml) subtype B [µg/mL]
1,B1,0.105
2,B2,3.36
3,B3,0.187
4,B4,0.022
5,B5,0.174
6,B6,0.035
7,B7,0.057
8,B8,0.038
9,B9,0.107
10,B10,0.508
11,B11,0.114
12,B12,0.055
13,B13,0.089
14,B14,0.355
15,B15,0.351
16,B16,0.05
17,B17,0.13
